These results are taken from US20210063414A1, “METHODS FOR PREVENTING AND/OR TREATING BONE LOSS CONDITIONS BY MODULATING IRISIN” (Dana-Farber Cancer Institute, Inc., priority 2018, published 2021).

For experiment [1], the target named is T1, MLO-Y4 cell surface proteins (Mus musculus, UniProt P55292).
T1 construct: endogenous in cells; host or cells: MLO-Y4
T1 sequence (P55292 136-902): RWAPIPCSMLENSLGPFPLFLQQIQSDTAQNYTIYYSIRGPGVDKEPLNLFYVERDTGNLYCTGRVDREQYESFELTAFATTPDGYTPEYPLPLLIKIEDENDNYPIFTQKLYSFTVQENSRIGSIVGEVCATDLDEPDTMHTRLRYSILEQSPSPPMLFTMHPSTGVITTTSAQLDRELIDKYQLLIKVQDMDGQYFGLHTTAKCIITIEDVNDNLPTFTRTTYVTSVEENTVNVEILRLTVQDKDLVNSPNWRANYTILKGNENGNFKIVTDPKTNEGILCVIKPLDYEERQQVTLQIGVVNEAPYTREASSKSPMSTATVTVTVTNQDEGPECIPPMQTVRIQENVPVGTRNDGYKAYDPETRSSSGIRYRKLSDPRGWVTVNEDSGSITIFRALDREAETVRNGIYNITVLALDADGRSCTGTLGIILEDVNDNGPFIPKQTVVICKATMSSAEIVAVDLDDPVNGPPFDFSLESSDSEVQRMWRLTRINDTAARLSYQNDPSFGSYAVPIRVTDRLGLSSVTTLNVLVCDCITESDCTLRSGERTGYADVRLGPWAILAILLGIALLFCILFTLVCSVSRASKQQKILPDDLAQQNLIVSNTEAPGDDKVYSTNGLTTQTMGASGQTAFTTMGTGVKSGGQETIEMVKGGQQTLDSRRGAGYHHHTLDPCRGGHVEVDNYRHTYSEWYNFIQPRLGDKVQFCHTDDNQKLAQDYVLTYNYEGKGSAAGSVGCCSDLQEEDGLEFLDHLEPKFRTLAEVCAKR
The experiment in a line: Crosslinking/co-immunoprecipitation/mass spectrometry (TMT quantitative proteomics) to identify irisin receptors. To be noted: co-precipitated protein Dsc2 (DSC2_MOUSE). The class given is binding. The gist of the method: (§1)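 Mouse MLO-Y4 cells were switched to serum-free FreeStyle medium for 4 h, chilled, then exposed to 10 nM His-tagged irisin (or adipsin as control) for 20 min. Cells were crosslinked with 1.5 mM DTSSP (30 min, ice), and bound proteins were pulled down on Ni-NTA and eluted with 250 mM imidazole. Eluates were separated by SDS-PAGE, trypsin-digested in gel, TMT 6-plex labelled and quantified by MS3-based LC-MS/MS on an Orbitrap Fusion Lumos.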

Experiment [2] concerns the target T2, MLO-Y4 cell surface proteins (Mus musculus, UniProt Q9CXD6).
T2 construct: endogenous in cells; host or cells: MLO-Y4
T2 sequence (Q9CXD6 1-340): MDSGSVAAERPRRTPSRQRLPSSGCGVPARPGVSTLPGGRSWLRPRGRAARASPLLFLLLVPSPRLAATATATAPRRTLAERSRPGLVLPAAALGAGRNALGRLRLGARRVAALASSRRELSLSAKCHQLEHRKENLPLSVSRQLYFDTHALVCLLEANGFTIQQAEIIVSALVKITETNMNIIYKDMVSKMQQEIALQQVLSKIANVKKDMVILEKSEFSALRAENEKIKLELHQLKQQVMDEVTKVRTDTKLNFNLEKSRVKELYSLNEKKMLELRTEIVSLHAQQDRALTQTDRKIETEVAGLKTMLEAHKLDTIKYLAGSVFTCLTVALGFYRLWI
The experiment is described as above. It counts as binding. To be noted: co-precipitated protein Mcur1 (MCUR1_MOUSE). The gist of the method: as §1

B1: irisin: secreted cleaved form of FNDC5; recombinant human/mouse irisin with C-terminal his tag produced in HEK293 cells (protein)
chain: DSPSAPVNVTVRHLKANSAVVSWDVLEDEVVIGFAISQQKKDVRMLRFIQEVNTTTRSCALWDLEEDTEYIVHVQAISIQGQSPASEPVLFKTPREAEKMASKNKDEVTMKE
modifications: left off: small tags and cut ends
notes: secreted cleaved form of FNDC5; recombinant human/mouse irisin with C-terminal his tag produced in HEK293 cells
In the case of B1, in experiment [1], the TMT signal-to-noise ratio is listed as 3.51 and the “irisin/adipsin TMT signal-to-noise ratio” value came out at 0.037. In experiment [2], the TMT signal-to-noise ratio is given as 951.207 and the “irisin/adipsin TMT signal-to-noise ratio” value stood at 0.583.
